Assay results published in publication PMC3031242, “A novel neuron-enriched protein SDIM1 is down regulated in Alzheimer's brains and attenuates cell death induced by DNAJB4 over-expression in neuro-progenitor cells” (Molecular Neurodegeneration, 2011).

Target: the molecule itself
Experiment: dimer-sized band on SDS-PAGE and Western blot; purified GST-SDIM1 (Coomassie and anti-SDIM1 blot, Figure 3A; anti-GST blot of the anti-GST immunoprecipitate, Figure 3D left panel lane 4)

B1: GST-SDIM1 fusion protein (domain or fragment, human, UniProt Q6ZPB5 27-146, looked up)
chain: AGPSPGARTTLGSPLSLWSIKTPSHIFCTRRAINLGFPSPPLVQLIFWSLNAGLDLYLCLISSCGFSQVFWPVEAFCSFSLSFFALALSHKFVICRLDQHIFSGFTKSLKNLPPCHRTDI
notes: first residue C27 mutated to A to increase solubility in E. coli; Cloned into pGEX-3X; GST itself is known to dimerise; also called recombinant GST-SDIM1; SDIM1-GST fusion protein; source: E. coli Rosetta cells, purified (glutathione column)
Question: Does B1 bind?
Answer: binds
